The source of these data is PMC4975667.

The experiment deals with Human full-length BAX (1–192) wild type, recombinant (human) (UniProt Q07812).

Broadly, the Kd is the equilibrium constant for the complex coming apart. With “Human full-length BAX (1–192) wild type, recombinant (from UniProt Q07812 1-192) (natural protein)”, the equilibrium dissociation constant (Kd) worked out at 32 µM.
